In US20240148895A1 (EISAI R AND D MANAGEMENT, published 2024):

T1: human CEACAM6 extracellular domain-SEAP-His protein (human)
T1 chain: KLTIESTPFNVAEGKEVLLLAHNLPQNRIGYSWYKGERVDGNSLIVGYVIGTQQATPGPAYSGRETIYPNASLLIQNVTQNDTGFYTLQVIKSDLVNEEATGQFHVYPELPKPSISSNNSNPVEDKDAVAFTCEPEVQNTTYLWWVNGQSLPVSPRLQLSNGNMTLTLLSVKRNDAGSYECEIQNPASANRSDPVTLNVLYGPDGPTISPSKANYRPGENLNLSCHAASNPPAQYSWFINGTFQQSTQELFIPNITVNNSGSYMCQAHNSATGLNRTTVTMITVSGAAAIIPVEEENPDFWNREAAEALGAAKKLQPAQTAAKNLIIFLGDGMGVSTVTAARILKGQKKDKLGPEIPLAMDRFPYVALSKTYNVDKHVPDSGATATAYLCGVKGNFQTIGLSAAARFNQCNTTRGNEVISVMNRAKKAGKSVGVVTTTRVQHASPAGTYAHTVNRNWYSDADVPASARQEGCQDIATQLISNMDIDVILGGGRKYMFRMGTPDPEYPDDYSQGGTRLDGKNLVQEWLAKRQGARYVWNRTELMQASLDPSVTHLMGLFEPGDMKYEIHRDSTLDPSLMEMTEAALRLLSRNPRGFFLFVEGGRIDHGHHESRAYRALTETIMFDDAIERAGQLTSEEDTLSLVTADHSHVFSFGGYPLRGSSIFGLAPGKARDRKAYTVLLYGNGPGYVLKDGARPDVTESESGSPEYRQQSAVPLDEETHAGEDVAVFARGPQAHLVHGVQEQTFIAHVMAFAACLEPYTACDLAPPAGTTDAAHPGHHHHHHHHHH

T2: human CEACAM6 expressed on Pan02/Pgp-KO/hCEACAM6 cells (human, UniProt P40199 35-320)
T2 construct: also called carcinoembryonic antigen-related cell adhesion molecule 6; CD66c
T2 sequence: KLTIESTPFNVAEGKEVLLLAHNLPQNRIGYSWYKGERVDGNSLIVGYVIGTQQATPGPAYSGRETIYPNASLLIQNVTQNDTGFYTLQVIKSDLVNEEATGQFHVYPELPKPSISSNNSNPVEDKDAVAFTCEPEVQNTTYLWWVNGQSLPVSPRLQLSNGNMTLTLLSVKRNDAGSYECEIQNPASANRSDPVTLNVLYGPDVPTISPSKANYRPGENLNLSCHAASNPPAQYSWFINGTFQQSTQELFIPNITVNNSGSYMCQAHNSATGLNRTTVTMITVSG

B1: human antibody fragment (scFv) specifically binding to human CEACAM6, from which antibody A was designed (scFv, V domains shown)
VH: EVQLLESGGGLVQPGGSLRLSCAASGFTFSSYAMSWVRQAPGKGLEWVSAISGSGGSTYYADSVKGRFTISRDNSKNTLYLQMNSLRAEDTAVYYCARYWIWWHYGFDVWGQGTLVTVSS
VL: SSELTQDPAVSVALGQTVRITCQGDSLRSYYASWYQQKPGQAPVLVIYGKNNRPSGIPDRFSGSSSGNTASLTITGAQAEDEADYYCQSYYSSSHYVVFGGGTKLTVL
notes: Tested as a single-chain FLAG-tagged scFv in E. coli culture supernatant; also called FLAG-tagged scFv
B2: antibody A (human anti-CEACAM6_#84.7 monoclonal antibody) (antibody, human IgG1, lambda, V domains shown)
VH: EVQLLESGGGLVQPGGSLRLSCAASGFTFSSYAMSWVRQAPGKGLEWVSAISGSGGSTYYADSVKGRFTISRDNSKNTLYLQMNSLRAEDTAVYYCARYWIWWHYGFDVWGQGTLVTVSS
VL: SSELTQDPAVSVALGQTVRITCQGDSLRSYYASWYQQKPGQAPVLVIYGKNNRPSGIPDRFSGSSSGNTASLTITGAQAEDEADYYCQSYYSSSHYVVFGGGTKLTVLG
notes: The heavy chain constant region is human IgG1/2m: IgG1 CH1 and hinge, IgG2 CH2 and CH3 with V234A and G237A (Eu numbering); The light chain constant region is human Ig lambda

Columns and labels:
[1] = biological target: human CEACAM6 extracellular domain-MBP-His protein (human); test: ELISA: FLAG-tagged scFv from E. coli supernatant captured on anti-FLAG antibody, 20 nM antigen, HRP-labeled anti-His antibody detection, absorbance at 450 nm
Description: (§1) After the second panning procedure, a single colony from the concentrated phage-infected TG1 cells was transferred to culture medium on a 96-well plate. IPTG was added to induce expression of the FLAG-tagged scFv, and vibration culture was carried out overnight at 30° C. The TG1 cells were spinned down and the scFv-containing E. coli culture supernatant was used to pickup the wells that were reactive with human CEACAM6.
(§2) Reactivity with human CEACAM6 was evaluated by ELISA according to the following procedure, using either human CEACAM6 extracellular domain-SEAP-His protein or human CEACAM6 extracellular domain-MBP-His protein. The wells of a 96-well plate (Nunc) were coated with anti-FLAG antibody (Sigma). After incubation overnight at 4° C., the wells were blocked with 2% skim milk (BD) for 2 hours at room temperature. After rinsing 3 times with 0.02% Tween20/PBS (Nacalai Tesque, Inc.), human CEACAM6 extracellular domain-SEAP-His protein or human CEACAM6 extracellular domain-MBP-His protein (final concentration: 20 nM) and E. coli culture supernatant containing scFv were added to each well and incubation was continued for 2 hours at room temperature. […] An equivalent of stopping solution (1N H₂SO₄, FujiFilm Wako Pure) was added to each well, and the absorbance at 450 nm was read off using a microplate reader (Thermo Scientific). […]

[2] = biological target: T1, human CEACAM6 extracellular …; test: as above
Description: as §1, §2

[3] = biological target: T2, human CEACAM6 expressed on …; test: flow cytometry sorting ([..] II) of Pan02 cells transfected with human CEACAM6
Source text: The mouse pancreatic cancer cell line Pan02 (National Institutes of Health) was transfected with recombinant Cas9 protein (Alt-R S.p. HiFi Cas9 V3, Integrated DNA Technologies), and mouse Abcb1a and single guided RNA (Aft-R CRISPR sgRNA, Integrated DNA Technologies) for Abcb1b, using a NEPA21 Super Electroporator (Nepa Gene). The obtained cells were further transfected with human CEACAM6 using pLV[Exp]-Puro-EFS lentiviral vector (VectorBuilder) and MISSION Lentiviral Packaging Mix (Sigma-Aldrich). […] The established cells were designated as cell line Pan02/Pgp-KO/hCEACAM6, and were maintenance cultured in a 5% CO₂ incubator (37° C.) using RPMI (FujiFilm-Wako Pure Chemical Industries) containing 10% fetal bovine serum (FBS: SIGMA 173012) and penicillin/streptomycin (FujiFilm-Wako Pure Chemical Industries) (hereunder referred to simply as “culture medium”).

| Binder | binding result [1] | binding result [2] | binding result [3] |
| --- | --- | --- | --- |
| B1 | binds | binds |  |
| B2 |  |  | binds |
